In the Immune Epitope Database (IEDB) one finds Kd data, which are given here for 3 sequences.

For test [1], the target named is HLA-A*02:01. The test can be described thus: IEDB peptide-MHC binding, purified MHC/competitive/fluorescence; filed as Kd, often an IC50 or EC50 that approximates it; ≥ and ≤ were set here for values at or beyond the usual limits of such assays.
Another test has as its target HLA-A*02:03. The test is described as above.
In the next test the target is HLA-A*02:11. The test is described as above.
The next test deals with HLA-A*02:12. The test is described as above.
The target of another test is HLA-A*02:16. Described as above. The conditions noted are these: source organism: Burkholderia vietnamiensis G4.
The target in another test is HLA-A*02:19. The description is as above.
Test [2] addresses HLA-A*03:01. The test is described as above.
The target in another test is HLA-A*23:01. The description is as above.
The target of test [3] is HLA-A*24:03. The test is described as above.
The target in test [4] is HLA-A*26:01. The test is described as above.
A further test has as its target HLA-A*29:02. The test is described as above.
Test [5] has as its target HLA-B*15:01. The test is described as above.
In another test the target is HLA-B*18:01. The test is described as above.
A further test addresses HLA-B*27:03. Described as above.
A further test addresses HLA-B*39:01. The description is as above.
The target of another test is HLA-B*46:01. Described as above.
In another test the target is HLA-B*51:01. Described as above.
The next test has as its target HLA-B*57:01. The description is as above.
The target of another test is HLA-A*01:01. Kind of test: IEDB peptide-MHC binding, purified MHC/direct/fluorescence; filed as Kd, often an IC50 or EC50 that approximates it; ≥ and ≤ were set here for values at or beyond the usual limits of such assays. The conditions noted are these: source organism: Klebsiella pneumoniae.
Test [6] concerns the target HLA-A*02:01. Described as above. The conditions noted are these: source organism: Klebsiella pneumoniae.
Test [7] addresses HLA-A*03:01. Described as above. The following applies: source organism: Klebsiella pneumoniae.
A further test concerns the target HLA-A*11:01. The test is described as above. The conditions noted are these: source organism: Klebsiella pneumoniae.
The target in test [8] is HLA-A*24:03. The test is described as above. The conditions noted are these: source organism: Klebsiella pneumoniae.
For test [9], the target named is HLA-A*26:01. The test is described as above. The following applies: source organism: Klebsiella pneumoniae.
Another test has as its target HLA-A*31:01. The test is described as above. The conditions noted are these: source organism: Klebsiella pneumoniae.
Test [10] addresses HLA-A*69:01. The description is as above. The following applies: source organism: Klebsiella pneumoniae.
For a further test, the target named is HLA-B*07:02. Described as above. The following applies: source organism: Klebsiella pneumoniae.
A further test addresses HLA-B*08:01. Described as above. The following applies: source organism: Klebsiella pneumoniae.
For test [11], the target named is HLA-B*15:01. Described as above. The conditions noted are these: source organism: Klebsiella pneumoniae.
For the next test, the target named is HLA-B*27:05. Described as above. The following applies: source organism: Klebsiella pneumoniae.
A further test deals with HLA-B*40:01. The test is described as above. The following applies: source organism: Klebsiella pneumoniae.
The target in a further test is HLA-B*58:01. The test is described as above. The following applies: source organism: Klebsiella pneumoniae.
The target in a further test is HLA-A*02:50. Kind of test: IEDB peptide-MHC binding, purified MHC/competitive/fluorescence; filed as Kd, often an IC50 or EC50 that approximates it; ≥ and ≤ were set here for values at or beyond the usual limits of such assays. The following applies: source organism: Klebsiella pneumoniae.
In a further test the target is HLA-A*68:02. The test is described as above. The conditions noted are these: source organism: Bacillus anthracis str. Ames.
The target in test [12] is HLA-A*69:01. The test is described as above. The following applies: source organism: Bacillus anthracis str. Ames.
The target of another test is HLA-B*15:17. The test is described as above. The conditions noted are these: source organism: Bacillus anthracis str. Ames.
The mark [13] stands for this setting: source organism: Burkholderia vietnamiensis G4.
The mark [14] stands for this setting: source organism: Bacillus anthracis str. Ames.

Turning to GVNDTEAHA, the Kd in the test with HLA-A*02:01 [1] (setting [13]) was at least 20 µM; with HLA-A*02:03 (setting [13]) it was at least 20 µM; in the test with HLA-A*02:11 (setting [13]), at least 20 µM; with HLA-A*02:12 (setting [13]) it was at least 20 µM; in the test with HLA-A*02:16, 0.365 µM; in the test with HLA-A*02:19 (setting [13]) it was at least 20 µM. Moreover, the equilibrium dissociation constant (Kd) with HLA-A*03:01 [2] (setting [13]), in the test with HLA-A*23:01 (setting [13]), in the test with HLA-A*24:03 [3] (setting [13]), with HLA-A*26:01 [4] (setting [13]), with HLA-A*29:02 (setting [13]) and with HLA-B*15:01 [5] (setting [13]) was at least 20 µM each time. In addition, the dissociation constant Kd with HLA-B*18:01 (setting [13]), in the test with HLA-B*27:03 (setting [13]), with HLA-B*39:01 (setting [13]), with HLA-B*46:01 (setting [13]), with HLA-B*51:01 (setting [13]) and with HLA-B*57:01 (setting [13]) was at least 20 µM in each case.

Consider LLQEKYGLI, for which the Kd is at least 20 µM in the test with HLA-A*01:01; 1.18 µM with HLA-A*02:01 [6]; at least 20 µM in the test with HLA-A*03:01 [7]; at least 20 µM in the test with HLA-A*11:01; at least 20 µM with HLA-A*24:03 [8]; at least 20 µM with HLA-A*26:01 [9]. Besides, the dissociation constant Kd with HLA-A*31:01 is at least 20 µM; in the test with HLA-A*69:01 [10], at least 20 µM; with HLA-B*07:02, at least 20 µM; in the test with HLA-B*08:01 it was 7.89 µM; with HLA-B*15:01 [11], at least 20 µM; in the test with HLA-B*27:05, at least 20 µM. Also, the Kd with HLA-B*40:01 is at least 20 µM; with HLA-B*58:01, at least 20 µM; with HLA-A*02:50, 0.0177 µM.

As to VILYFMYRK, the dissociation constant (Kd) in the test with HLA-A*02:01 [1] (setting [14]) is at least 20 µM; with HLA-A*02:03 (setting [14]), at least 20 µM; with HLA-A*02:11 (setting [14]), at least 20 µM; in the test with HLA-A*02:12 (setting [14]), at least 20 µM; in the test with HLA-A*02:19 (setting [14]), at least 20 µM; with HLA-A*03:01 [2] (setting [14]), 0.528 µM. For the same sequence, the Kd in the test with HLA-A*23:01 (setting [14]), with HLA-A*24:03 [3] (setting [14]), with HLA-A*26:01 [4] (setting [14]), with HLA-A*29:02 (setting [14]), with HLA-A*68:02 and with HLA-A*69:01 [12] was at least 20 µM each time. The dissociation constant Kd in the test with HLA-B*15:01 [5] (setting [14]), in the test with HLA-B*15:17, with HLA-B*18:01 (setting [14]), with HLA-B*27:03 (setting [14]), with HLA-B*39:01 (setting [14]) and with HLA-B*46:01 (setting [14]) was at least 20 µM in each case. The Kd in the test with HLA-B*51:01 (setting [14]) and with HLA-B*57:01 (setting [14]) was at least 20 µM throughout.

A word on the Kd: it is the equilibrium constant for the complex coming apart. A lower Kd goes with tighter binding.
